Experimental data reported in the supplement of paper PMC7877785.
± gives the uncertainty stated by the source.

Assay: self-splicing fitness, log relative to wild type (ln ratio); higher = more splicing; Tetrahymena group I intron in knt gene, E. coli kanamycin selection, DiMSum; sequences stand for … in CUCUCU…GGAGGGAAAAGUUAUCAGGCAUGCACCUGGUAGCUAGUCUUUAAACCAAUAGAUUGCAUCGGUUUAAAAGGCAAGACCGUCAAAUUGCGGGAAAGGGGUCAACAGCCGUUCAGUACCAAGUCUCAGGGGAAACUUUGAGAUGGCCUUGCAAAGGGUAUGGUAAUAAGCUGACGGACAUGGUCCUAACCACGCAGCCAAGUCCUAAGUCAACAGAUCUUCUGUUGAUAUGGAUGCAGUUCACAGACUAAAUGUCGGUCGGGGAAGAUGUAUUCUUCUCAUAAGAUAUAGUCGGACCUCUCCUUAAUGGGAGCUAGCGGAUGAAGUGAUGCAACACUGGAGCCGCUGGGAACUAAUUUGUAUGCGAAAGUAUAUUGAUUAGUUUUGGAGUACUCGUGGUCG
Outline: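 Six replicate transformations of E. coli BL21(DE3) with a pET-22b(+) library were grown overnight at 37°C or 30°C. The library randomised all eight P1ex-region intron nucleotides, the intron lying in the knt kanamycin-resistance gene, and plates were LB agar with or without 25 μg/mL kanamycin plus 100 μg/mL carbenicillin, 50 μM IPTG and 0.2% rhamnose. Pooled colonies were amplicon-sequenced on an Illumina HiSeq 2500, and fitness is the DiMSum error-weighted combination of wild-type-normalised replicate fold changes, kanamycin versus none.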

Sequence: GUGAAGCAAUAUUACGAAAA
- self-splicing fitness (ln) (30 °C): -1.44 ± 0.14
- self-splicing fitness (ln) (37 °C): -0.831 ± 0.18

Sequence: GUGAAGCAAUAUUACGACGU
- self-splicing fitness (ln) (30 °C): 0.815 ± 0.1
- self-splicing fitness (ln) (37 °C): 0.675 ± 0.1

Sequence: GUGAAGCAAUAUUACGACUU
- self-splicing fitness (ln) (30 °C): -0.643 ± 0.056
- self-splicing fitness (ln) (37 °C): -0.276 ± 0.084

Sequence: GUGAAGCAAUAUUACGCCGG
- self-splicing fitness (ln) (30 °C): -1.96 ± 0.45

Sequence: GUGAAGCAAUAUUACGCCUA
- self-splicing fitness (ln) (30 °C): -0.415 ± 0.11
- self-splicing fitness (ln) (37 °C): -0.226 ± 0.17

Sequence: GUGAAGCAAUAUUACGCGUC
- self-splicing fitness (ln) (30 °C): -2.19 ± 0.19
- self-splicing fitness (ln) (37 °C): -0.692 ± 0.16

Sequence: GUGAAGCAAUAUUACGCUGA
- self-splicing fitness (ln) (30 °C): -1.32 ± 0.092
- self-splicing fitness (ln) (37 °C): -1.09 ± 0.13

Sequence: GUGAAGCAAUAUUACGCUUA
- self-splicing fitness (ln) (30 °C): -1.49 ± 0.087
- self-splicing fitness (ln) (37 °C): -0.459 ± 0.13

Sequence: GUGAAGCAAUAUUACGGAAA
- self-splicing fitness (ln) (30 °C): -1.64 ± 0.11
- self-splicing fitness (ln) (37 °C): -0.16 ± 0.17

Sequence: GUGAAGCAAUAUUACGGAUG
- self-splicing fitness (ln) (30 °C): -0.987 ± 0.07
- self-splicing fitness (ln) (37 °C): -0.586 ± 0.098

Sequence: GUGAAGCAAUAUUACGGCCA
- self-splicing fitness (ln) (30 °C): -0.0192 ± 0.11
- self-splicing fitness (ln) (37 °C): 0.468 ± 0.15

Sequence: GUGAAGCAAUAUUACGGGGG
- self-splicing fitness (ln) (30 °C): -2.67 ± 0.14
- self-splicing fitness (ln) (37 °C): -3.08 ± 0.14

Sequence: GUGAAGCAAUAUUACGGGGU
- self-splicing fitness (ln) (30 °C): -3.53 ± 0.16
- self-splicing fitness (ln) (37 °C): -1.45 ± 0.14

Sequence: GUGAAGCAAUAUUACGGUGC
- self-splicing fitness (ln) (30 °C): -1.74 ± 0.27
- self-splicing fitness (ln) (37 °C): -0.977 ± 0.27

Sequence: GUGAAGCAAUAUUACGUGGU
- self-splicing fitness (ln) (30 °C): -4.17 ± 0.24
- self-splicing fitness (ln) (37 °C): -1.61 ± 0.14

Sequence: GUGCAGCAAUAUUACGAAAG
- self-splicing fitness (ln) (30 °C): -1.58 ± 0.18
- self-splicing fitness (ln) (37 °C): -2.38 ± 0.27

Sequence: GUGCAGCAAUAUUACGAACU
- self-splicing fitness (ln) (30 °C): -1.16 ± 0.11
- self-splicing fitness (ln) (37 °C): 0.161 ± 0.12

Sequence: GUGCAGCAAUAUUACGAAGU
- self-splicing fitness (ln) (30 °C): -1.74 ± 0.14
- self-splicing fitness (ln) (37 °C): -0.554 ± 0.17

Sequence: GUGCAGCAAUAUUACGAAUG
- self-splicing fitness (ln) (30 °C): -2.95 ± 0.16
- self-splicing fitness (ln) (37 °C): -2.01 ± 0.19

Sequence: GUGCAGCAAUAUUACGACGC
- self-splicing fitness (ln) (30 °C): -0.518 ± 0.099
- self-splicing fitness (ln) (37 °C): 0.23 ± 0.13

Sequence: GUGCAGCAAUAUUACGAGAC
- self-splicing fitness (ln) (30 °C): -2.12 ± 0.13
- self-splicing fitness (ln) (37 °C): -1.53 ± 0.12

Sequence: GUGCAGCAAUAUUACGAUAG
- self-splicing fitness (ln) (30 °C): -2.3 ± 0.22
- self-splicing fitness (ln) (37 °C): -2.21 ± 0.27

Sequence: GUGCAGCAAUAUUACGAUGG
- self-splicing fitness (ln) (30 °C): -3.54 ± 0.37
- self-splicing fitness (ln) (37 °C): -3.15 ± 0.47

Sequence: GUGCAGCAAUAUUACGCAGC
- self-splicing fitness (ln) (30 °C): -3.21 ± 0.34
- self-splicing fitness (ln) (37 °C): -1.3 ± 0.34

Sequence: GUGCAGCAAUAUUACGCAUG
- self-splicing fitness (ln) (30 °C): -3.11 ± 0.29
- self-splicing fitness (ln) (37 °C): -0.586 ± 0.16

Sequence: GUGCAGCAAUAUUACGCCAC
- self-splicing fitness (ln) (37 °C): -1.95 ± 0.47

Sequence: GUGCAGCAAUAUUACGCUUU
- self-splicing fitness (ln) (30 °C): -1.26 ± 0.066
- self-splicing fitness (ln) (37 °C): -0.18 ± 0.074

Sequence: GUGCAGCAAUAUUACGGAGG
- self-splicing fitness (ln) (30 °C): -3.96 ± 0.22
- self-splicing fitness (ln) (37 °C): -2.55 ± 0.25

Sequence: GUGCAGCAAUAUUACGGCGA
- self-splicing fitness (ln) (30 °C): -0.548 ± 0.064
- self-splicing fitness (ln) (37 °C): 0.119 ± 0.092

Sequence: GUGCAGCAAUAUUACGGCGG
- self-splicing fitness (ln) (30 °C): -1.98 ± 0.11
- self-splicing fitness (ln) (37 °C): -1.1 ± 0.13

Sequence: GUGCAGCAAUAUUACGGUCA
- self-splicing fitness (ln) (30 °C): -1.46 ± 0.12
- self-splicing fitness (ln) (37 °C): -1.16 ± 0.11

Sequence: GUGCAGCAAUAUUACGGUCC
- self-splicing fitness (ln) (30 °C): -0.146 ± 0.15
- self-splicing fitness (ln) (37 °C): 0.0655 ± 0.22

Sequence: GUGCAGCAAUAUUACGGUGC
- self-splicing fitness (ln) (30 °C): -1.91 ± 0.19
- self-splicing fitness (ln) (37 °C): -2.31 ± 0.28

Sequence: GUGCAGCAAUAUUACGUCAU
- self-splicing fitness (ln) (30 °C): -2.23 ± 0.089
- self-splicing fitness (ln) (37 °C): -1.95 ± 0.1

Sequence: GUGCAGCAAUAUUACGUGAG
- self-splicing fitness (ln) (30 °C): -0.173 ± 0.054
- self-splicing fitness (ln) (37 °C): -0.117 ± 0.084

Sequence: GUGCAGCAAUAUUACGUGUA
- self-splicing fitness (ln) (30 °C): -2.77 ± 0.16
- self-splicing fitness (ln) (37 °C): -1.31 ± 0.11

Sequence: GUGCAGCAAUAUUACGUUAU
- self-splicing fitness (ln) (30 °C): -1.84 ± 0.084
- self-splicing fitness (ln) (37 °C): -0.973 ± 0.098

Sequence: GUGCAGCAAUAUUACGUUCU
- self-splicing fitness (ln) (30 °C): -1.1 ± 0.1
- self-splicing fitness (ln) (37 °C): 0.673 ± 0.097

Sequence: GUGGAGCAAUAUUACGACUA
- self-splicing fitness (ln) (37 °C): -0.509 ± 0.37
